Among the data in article PMC7239899 are Kd values, retold here.

As a reminder, the Kd is a measure of binding affinity in units of concentration. The low end stands for a tighter complex, the high end for a looser complex.

The test system of this series is RpsA WT (Mycobacterium tuberculosis H37Rv). Put plainly: MST. As to conditions: MST: PBS-T/MST buffer with 0.1% Tween 20, 15 min at room temperature, 50 nM RpsA, tmRNA dilution series from 4.1 uM; EMSA buffer not given in material.

In the case of tmRNA, the Kd worked out at 58.1 nM. That is a double-digit nanomolar value.
